B1: 10.28 (ssRNA)
RNA: GGGAGCUCAGAAUAAACGCUCAACGUUUAGGACUCCCCCGUUCGUCGAGCGAAUUCGACAUGAGGCCCGGAUCCGGC
modifications: 5'-GMPS
B2: 12.3 (ssRNA)
RNA: GGGAGCUCAGAAUAAACGCUCAACAUCACAACUUGUUGUCCUGGUCGAUGUCCUUCGACAUGAGGCCCGGAUCCGGC
modifications: 5'-GMPS
B3: 12.47 (ssRNA)
RNA: GGGAGCUCAGAAUAAACGCUCAAUGUGUGAGUGGAUCCGUUCCCCGCCUGGUGUUCGACAUGAGGCCCGGAUCCGGC
modifications: 5'-GMPS
B4: 12.22 (ssRNA)
RNA: GGGAGCUCAGAAUAAACGCUCAAUGCCACUUUUGUUCGGAUCUUAGGAAGGCAUUCGACAUGAGGCCCGGAUCCGGC
modifications: 5'-GMPS
B5: 12.46 (ssRNA)
RNA: GGGAGCUCAGAAUAAACGCUCAAUGGACACAACUCCAUUCAUCCCGGGACCGCUGUUCGACAUGAGGCCCGGAUCCGGC
modifications: 5'-GMPS
B6: 12.24 (ssRNA)
RNA: GGGAGCUCAGAAUAAACGCUCAACGUCAGCGGAUCUCCAUUGCGUUAUACGGGUUCGACAUGAGGCCCGGAUCCGGC
modifications: 5'-GMPS
B7: 12.6 (ssRNA)
RNA: GGGAGCUCAGAAUAAACGCUCAAGCGGUAACAUGCUGGAUCUCAGGAAACCGCUUCGACAUGAGGCCCGGAUCCGGC
modifications: 5'-GMPS
B8: 12.45 (ssRNA)
RNA: GGGAGCUCAGAAUAAACGCUCAAGCGGUAACAUGCUGGAUCUCAGGAAACCGUUUCGACAUGAGGCCCGGAUCCGGC
modifications: 5'-GMPS
B9: 12.9 (ssRNA)
RNA: GGGAGCUCAGAAUAAACGCUCAAGUGGAGCUUCGUGACUUGGUCGGAGCCGUGUUCGACAUGAGGCCCGGAUCCGGC
modifications: 5'-GMPS
B10: 12.14 (ssRNA)
RNA: GGGAGCUCAGAAUAAACGCUCAAACGUCAUUCCGAGUCGGGUUCGUUCCCCGCUUCGACAUGAGGCCCGGAUCCGGC
modifications: 5'-GMPS
B11: 12.4 (ssRNA)
RNA: GGGAGCUCAGAAUAAACGCUCAACGAAUCAAUGCGCGGAUCUCAGGAUAUUCGUUCGACAUGAGGCCCGGAUCCGGC
modifications: 5'-GMPS
B12: 12.1 (ssRNA)
RNA: GGGAGCUCAGAAUAAACGCUCAAAGCUGUUGGCAGCGCUGGUGAAGGGAUAGGCUUCGACAUGAGGCCCGGAUCCGGC
modifications: 5'-GMPS

Rev, sequence (P04618 whole entry, one chain of several): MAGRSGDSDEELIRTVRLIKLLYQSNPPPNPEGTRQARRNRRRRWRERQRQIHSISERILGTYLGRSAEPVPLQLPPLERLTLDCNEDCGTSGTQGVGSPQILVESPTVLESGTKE
des-Arg9-bradykinin, sequence (P01042 whole entry, looked up, change not shown, one chain of several): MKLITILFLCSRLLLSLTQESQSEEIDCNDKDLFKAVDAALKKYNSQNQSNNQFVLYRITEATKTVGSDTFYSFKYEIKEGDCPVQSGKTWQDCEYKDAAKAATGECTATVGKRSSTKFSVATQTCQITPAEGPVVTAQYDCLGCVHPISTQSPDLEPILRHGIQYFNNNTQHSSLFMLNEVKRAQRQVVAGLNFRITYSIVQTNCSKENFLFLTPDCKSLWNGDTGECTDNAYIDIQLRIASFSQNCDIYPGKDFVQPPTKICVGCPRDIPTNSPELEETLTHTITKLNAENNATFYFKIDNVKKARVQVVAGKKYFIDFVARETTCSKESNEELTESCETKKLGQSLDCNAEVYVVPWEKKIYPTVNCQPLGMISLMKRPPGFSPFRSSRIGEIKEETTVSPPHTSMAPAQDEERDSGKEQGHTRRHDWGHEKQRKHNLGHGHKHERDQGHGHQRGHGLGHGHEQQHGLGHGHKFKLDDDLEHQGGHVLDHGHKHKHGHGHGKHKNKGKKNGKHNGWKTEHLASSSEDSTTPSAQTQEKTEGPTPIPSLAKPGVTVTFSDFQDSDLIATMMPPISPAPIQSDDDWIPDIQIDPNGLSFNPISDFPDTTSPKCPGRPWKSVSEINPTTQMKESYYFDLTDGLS

The first data set has as its target Rev (HIV-1, UniProt P04618 P04618:1-116). In words: EMSA; covalent complex without UV, resistant to 7M urea PAGE, in presence of human nuclear extract, on ice.
Conditions: not given
The protocol:
Trunc24 (SEQ ID NO:226) photo-independent crosslinking with HIV-1 Rev in the presence of human nuclear extracts was determined as follows: Trunc24 RNA, nuclear extracts, and Rev protein were combined and incubated on ice for 10 min. Samples were mixed 1:1 with 8M urea loading buffer and placed on a 7M urea, 8% polyacrylamide gel for analysis.
As to GGGGAUUAACAGGCACACCUGUUAACCCU (ssRNA, 5-iodouracil at all U) [Trunc24], the binding result was “binds”.

In the next data set the target is bradykinin, N-bromoacetylated (BrBK) (UniProt P01042 P01042:381-389). In words: kobs covalent reaction, APM gel, 0 C, 5 mM MgCl2. The settings on record: protein: synthetic; tags: synthetic peptide, N-terminal bromoacetyl. The protocol: Reverse transcription and polymerase chain reaction were carried out as reported by Schneider et al., (FASEB, 7, 201 (1993)). […] Reactions to determine $kobs$ values were carried out at 0° C. in reaction buffer (50 mM HEPES, pH 7.0, 5 mM MgCl_2, 150 mM NaCl) at 2 µM GMPS-RNA and 130 µM BrBK, with monitoring at 0, 1, 3, 10, 30, and 90 minutes. GMPS-RNA was denatured at 70° C. for 3 minutes and allowed to slow cool at room temperature prior to dilution to final reaction buffer conditions, transfer to ice, and addition of BrBK. Reactions were quenched on ice with 235 mM sodium thiosulfate and run on a denaturing 7 M urea 8% polyacrylamide APM gel. $kobs$ values were determined as the negative slope of the linear range of data points from plots relating the concentration of unreacted GMPS- RNA vs. time. Round 10 and round 12 pools were used for cloning and sequencing.
bradykinin, N-bromoacetylated (BrBK), sequence (P01042 whole entry, looked up, one chain of several): as the sequence (P01042 whole entry, looked up, change not shown, one chain of several) above
For B1, the activity was 0.0018 s⁻¹.
B2: the activity is 0.00075 s⁻¹.
Still for that read-out and setting: the value for B3 was 0.00149 s⁻¹.
The same measure, in the same setting: the value for B4 was 0.0012 s⁻¹; that for B5 was 0.00067 s⁻¹; that for B6 was 0.00144 s⁻¹.
The same measure, in the same setting: for B7 the value was 0.0022 s⁻¹; for B8, 0.0051 s⁻¹.
As for B9, the activity was 0.00128 s⁻¹.
As to B10, the activity was 0.0017 s⁻¹.
The molecule B11 registered an activity of 0.0017 s⁻¹.

The target in another data set is bradykinin (BK) (UniProt P01042 P01042:381-389). As to the kind of experiment: competition; inhibition of reaction of 12.1 with BrBK; +/-60. The conditions noted are these: tags: native peptide.
bradykinin (BK), sequence (P01042 whole entry, looked up, one chain of several): as the sequence (P01042 whole entry, looked up, change not shown, one chain of several) above
A word on the Ki: it is a dissociation constant, usually derived from enzyme kinetics or from competition with a known ligand. A high value points to weaker binding. In the case of B12, the Ki amounted to 140 µM.

A further data set concerns the target des-Arg9-bradykinin (UniProt P01042 P01042:381-388, des-Arg9). In words: competition; inhibition of reaction of 12.1 with BrBK; +/-0.5. The settings on record: tags: peptide analog.
Molecule B12 yielded a Ki of 2600 µM.

Values taken from US5998142, “Systematic evolution of ligands by exponential enrichment: chemi-SELEX” (NeXstar Pharmaceuticals, Inc.).
